Assay: soluble on expression in E. coli; label from the status in PepcDB or PDB records

| Sequence | soluble on expression in E. coli |
| --- | --- |
| MTQIARIRDNTSERRLQAERLIGARALQEAQALRFSVFSEEFNARLKGAEQGLDIDDYDIHCSHIGVRDLNTGRLVATTRLLDHKAANTLGSFYSEEEFSLHGLAHLQGPILELGRTCVDPAYRNGGTIAVLWSELAEVLNEGGYSYLMGCASIPMQDGGIQAHAIMQRLRERYLCNEHLRAEPKNPLPTLDIPSNVICEMPPLLKAYMRLGARICGEPCWDEDFQVADVFILLKRDDLCPRYARHFKAAV | not soluble |
| MAHHHHHHMMKLNRNVLFKKGEKITYSVKSVIFIINVIRTRGEEDDDNNNISGKSILGTSHNNISNIDLSSIPNLDSNIHASFSSDTKEWSPNNLTSKKKKKKKEIRPKDIMSNSDSSNTSSINKQNNNQIKSVLLKENKGVKITGPCNVNLSIFLVPHIYIDVETKYNNIELKYELDEFSDSIKFKDTTTELRTSDDTLMNTNFNVGVSRDTLDKDRLYNICAENKTFKFVVYIKDNILTLKWKVYETGVTNNKVDIRQYKMKELTRPITTIQIHSVSENKDTHLLESKNYVIKTDIPETCDVMATNCFLSGNINIEKCLECTLLVQNNDTSSECFTYVSNDVRENFNQIKAEAEDDENFRNYHLTDTINNILKRIYKINKNEGKKELITLEELDNFLKESITDYCKILREIDTNGTLVNHELGNNVDVFNNLIRLLKLHKNESISTLHNKLRNSAICMKYPDKWIEKKTGLILPNVVNNNIIYNNKYEKLNEEKKRKIYDNKDDSKISDIINIKKYIFTNNTLKYFNNDKQFCNSSFCNRLKDENNCISKIQIEDQGNCAISWIFASKYYLETLKCMKGYEPHAISALYIANCSKRKHKNRCNVGSNPLEFLQIIEENQFLPMDTNYLYSYTKVGNDCPDEEKNWVNLLKHTRMLNYNNKHRSTLSTKAYRAYESEHFKDKMDTFIKLIKDEIMNNGSVIAYVKAENVLGYELNGKNVQNLCGDKTPDHAVNIVGYGNYINDEDEKKSYWIVRNSWGKYWGDEGYFKVDMYGPSTCEDNFIHTVVVFNINMPKSKKSPVKITFPLYNYYLKYSPDFYHNLYYKNFNSKKSMKLVNASDEHKNIYSQEDKVNHKKGSKILNSEVTTSLLSQEISQRRGEDDDIDTLIGDSPDINEQEKNIKDEFNKSSITHNSVSSSNITKSNKNTNKVKIYHIIKHVKNTKIKIGFVKYDNYNTIGTNHTCSRSYSEDQEKHEGCIKFCELHWNECKDKTSPGYCLTKLKGSNECFFCYV | not soluble |
| MSLKVALVHDWLTNMGGAERVIINLKEIYKEAPIYTSLYNPDKLDDELRNIDVRTSFLQKPKNIKRGHQKLLPFMPMAFESFDLNEYDIVLSSCSSCAKGVVTNPNTMHVCYCHTPMRYAWEYYYEYADEWGLNKLKGKLLKYVMNYIRLWDGVSSKRVDYYIANSQNVAKRIWKHYKRESVVIHPPVRCKLFDISDVNEEYFLIVSRLVPYKRIDLAVEVFNELGLPLVVIGGGKDLDRLKNMAKDNIKFLGRQSDEVIKEYYSKCRAFIFPGEEDFGITPLEAQASGRPVIAYGKGGALETVVSGVTGVFFKEQTVDSLKSAVNEFEKINFDKSVIRRHAEEFDEEIFKKKIREYLSRSYDEFKKLKKWKVEGHHHHHH | soluble |
| MTPPIISPESFEALRRMRAAEPTMVAERFKQRRKRELLGEDGKLFIVAADHPARGALAVGDNETAMANRYELLERMAIALSRPGVDGVLGTPDIIDDLAALGLLDDKIVVGSMNRGGLRGASFEMDDRYTGYNVSSMVDRGVDFAKTLVRINLSDAGTAPTLEATAHAVNEAAAAQLPIMLEPFMSNWVNGKVVNDLSTDAVIQSVAIAAGLGNDSSYTWMKLPVVEEMERVMESTTMPTLLLGGEGGNDPDATFASWEHALTLPGVRGLTVGRTLLYPQDGDVAAAVDTAARLVHTDIQQFTSQSILEHHHHHH | soluble |
| MGHHHHHHSHMKMEHQNKRSPLHAAAEAGHVDICHMLVQAGANIDTCSEDQRTPLMEAAENNHLEAVKYLIKAGALVDPKDAEGSTCLHLAAKKGHYEVVQYLLSNGQMDVNCQDDGGWTPMIWATEYKHVDLVKLLLSKGSDINIRDNEENICLHWAAFSGCVDIAEILLAAKCDLHAVNIHGDSPLHIAARENRYDCVVLFLSRDSDVTLKNKEGETPLQCASLNSQV | not soluble |
| MYGAVVVAGDHQRGAGVGMLRTRKLAQVAEINVVKSLDYLRLWHPILQNLRGRDFPTIELLLLRWRPARSAPPLSPPRTQDFENPWSPKSHRTALPWVFVFLSSRSRDRGPKNPTRAQWVPMNR | not soluble |
| MKTPQGNTSASRREVDTSMRNRFEFAGSSLRDRIGSILSMDQTPRPATRANIFMGRTPTPARHLPESRRMFVPDYTSTPAPTAPRQEFRFEDLSRIVAPPIEQTFIQLDSDGELTLPAESSIAVSPPPRPSSEPLRHLSQVSLSARPASTEPVRRDVHWRVHPSAKIRKCTVPKTPSFARPTKSWLNRVNRED | not soluble |

From the DeepSol protein solubility set
